US20260035478A1 (TENEOBIO, published 2026)

Assays:
[1] = molecular target: T1, human mesothelin (MSLN) on cells (human, UniProt Q13421 296-598); test: flow cytometry, supernatant diluted 1:5, CHO cells expressing human MSLN
T1 construct: whole, on cells; One molecule is used for human MSLN on transfected CHO cells and on HeLa cells; the cell line is named under assay; also called huMSLN
Method: Pelleted CHO cells were resuspended in flow buffer (1× phosphate buffered saline (PBS), 1% bovine serum albumin (BSA), and 0.1% NaN₃) at 1.25×10⁶ cells/mL. Antibody containing supernatants were diluted 1:5 in flow buffer, and 40 μL cells plus 10 μL diluted antibody supernatant were incubated for 30 minutes at 4° C. Cells were washed with flow buffer and resuspended in 50 μL phycoerythrin (PE)-conjugated secondary antibody (Southern Biotech #2042-09) diluted in flow buffer to 1.25 μg/mL and incubated for 20 minutes at 4° C. After two wash steps, cells were resuspended in flow buffer and analyzed using a Guava easyCyte 8HT system. Table E1 summarizes the target binding activity of the anti-MSLN single domain antibodies as fold over background mean fluorescence intensity (MFI) signal.

[2] = molecular target: T2, recombinant human MSLN (R&D Systems, #3265-MS) (human, UniProt Q13421 296-580, limits assumed); test: BLI (Octet HTX), antibody on AHC sensors, antigen in solution, 1:1 model
T2 construct: Bought reagent; It was loaded on Ni-NTA sensors for the binning, so it apparently carries a His tag; also called antigen
Method: Table E3 summarizes affinity and epitope bin information for example anti-MSLN single domain antibodies of the present disclosure. The affinity of each single domain antibody to recombinant human MSLN (R&D Systems, #3265-MS) was measured by Bio-layer interferometry (BLI) using an Octet HTX. AHC (Anti-hIgG Fc Capture) sensors were used to immobilize test antibody at 5 μg/mL. After baseline readings, sensors were dipped into antigen solutions (starting at 500 nM followed by a 7-point, 2-fold dilution series). Association and dissociation were measured for 180 and 240 seconds respectively. Data were analyzed with Octet Data Analysis v11.0 HT (ForteBio) using a standard 1:1 binding model. Epitope bins for the single domain antibodies were determined by an in-tandem competition BLI binding experiment using an Octet HTX. The antigen (5 μg/mL) was loaded on the sensor Ni-NTA sensor followed by a baseline in kinetic buffer. The antigen-coated sensor was then dipped into a saturating concentration Antibody 1. A second baseline was now set for 300 seconds. Then the antigen-antibody 1 complex was dipped into Antibody 2 solution for 180 seconds and then allowed to dissociate.

[3] = molecular target: T1, human mesothelin (MSLN) on cells; test: flow cytometry dose curve, CHO cells expressing human MSLN
Method: (§1) Cell-binding dose curves for example anti-MSLN single domain antibodies described herein were generated using CHO cells expressing human MSLN (FIG. 1A), Hela cells (FIG. 1B), and CHO-OFFtgt cells (FIG. 1C). The single domain antibodies were tested at a starting concentration of 150 nM, followed by 3-fold serial dilutions for an 8-point dose curve. All washes and dilutions of cells, antibodies, and reagents were performed using flow buffer (1× phosphate buffered saline (PBS), 1% bovine serum albumin (BSA), and 0.1% NaN₃). Cells were pelleted and resuspended at 1×10⁶ cells/mL in flow buffer. Then, 50 μL cells were combined with 50 μL of test antibody and incubated 30 minutes at 4° C., followed by two wash steps with flow buffer. Cells were then resuspended in 50 μL PE-conjugated secondary diluted to 1.25 μg/mL (Southern Biotech #2042-09) and incubated for 20 minutes at 4° C. After two wash steps, cells were resuspended in flow buffer and analyzed using a BD Celesta system. PE mean fluorescence intensity was plotted as a fold over background (cells incubated with secondary detection antibody only).
To determine cell binding EC50 values for example anti-MSLN single domain antibodies of the present disclosure, cell binding dose curves were generated using Hela cells and CHO cells expressing human MSLN. The single domain antibodies were tested at a starting dose of 150 nM, followed by 3-fold serial dilutions for an 8-point dose curve as described in Example 2. The transformed data were plotted as an xy-graph using the non-linear regression curve fit (available in GraphPad Prism 8.4.3) to obtain the EC50 values (nM), which are summarized in Table E2.

[4] = molecular target: T1, human mesothelin (MSLN) on cells; test: flow cytometry dose curve, HeLa cells
Method: as §1
To determine cell binding EC50 values for example anti-MSLN single domain antibodies of the present disclosure, cell binding dose curves were generated using Hela cells and CHO cells expressing human MSLN. […]

T1 sequence (Q13421 other isoform, or with tags, fused parts or gaps limits assumed): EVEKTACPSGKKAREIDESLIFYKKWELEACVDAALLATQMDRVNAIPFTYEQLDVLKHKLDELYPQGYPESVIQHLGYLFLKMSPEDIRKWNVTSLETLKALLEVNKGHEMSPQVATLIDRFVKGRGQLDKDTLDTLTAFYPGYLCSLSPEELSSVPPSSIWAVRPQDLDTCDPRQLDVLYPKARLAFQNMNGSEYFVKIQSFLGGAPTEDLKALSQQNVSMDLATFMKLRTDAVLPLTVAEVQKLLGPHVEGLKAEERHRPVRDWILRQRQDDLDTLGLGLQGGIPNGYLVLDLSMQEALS
T2 sequence (Q13421 other isoform, or with tags, fused parts or gaps limits assumed): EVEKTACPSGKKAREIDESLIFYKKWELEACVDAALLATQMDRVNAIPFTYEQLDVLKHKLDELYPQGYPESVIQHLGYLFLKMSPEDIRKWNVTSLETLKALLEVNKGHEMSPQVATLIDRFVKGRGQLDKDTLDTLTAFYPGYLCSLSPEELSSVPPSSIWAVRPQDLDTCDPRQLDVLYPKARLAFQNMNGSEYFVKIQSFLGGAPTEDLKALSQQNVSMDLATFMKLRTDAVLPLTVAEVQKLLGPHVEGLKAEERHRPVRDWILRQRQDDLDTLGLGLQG

Binder	fold over background mean fluorescence intensity (MFI) [1] [fold over background]	Kd [2] [nM]	EC50 [3] [nM]	EC50 [4] [nM]
anti-MSLN single domain antibody clone 394955 (VHH, Human VH single domain; tested as antibody-containing supernatant) VHH: EVQLLESGGGLVQPGGSLRLSCAASGFTFSSYAMSWVRQAPGKGLEWVSSISSSGDSTYYADSVKGRFTISRDNSKNTLYLQMNSLRAEDTAVYYCAKPPSYYDFLSDPDYWGQGTLVTVSS	294			
anti-MSLN single domain antibody clone 392774 (VHH, Human VH single domain) VHH: EVQLLESGGGLVQPGGSLRLSCAASGFTFSSYAMTWVRQAPGKGLEWVSAITGSGDSTYYADSVKGRFTISRDNSKNTLFLQMSSLRGEDTAVYYCAKPPSYYDFLSDPDYWGQGTLVTVSS	246	185	7.2	15.6
anti-MSLN single domain antibody clone 394901 (VHH, Human VH single domain; tested as antibody-containing supernatant) VHH: EVQLLESGGGLIQPGGSLRLSCAASGFSFSSYAMSWVRQAPGKGLEWVSSISSSGDSTYYADSVKGRFTISRDNSKNTLYLQMNSLRAEDTAVYYCAKPPSYYDFLSDPDYWGQGTLVTVSS	400			
anti-MSLN single domain antibody clone 394912 (VHH, Human VH single domain; tested as antibody-containing supernatant) VHH: EVQLLESGGGLIQPGGSLRLSCAASGFSFSSYAMSWVRQAPGKGLEWVSSISSSGDGTYYADSVKGRFTISRDNSKNTLYLQMNSLRAEDTAVYYCAKPPSYYDFLSDPDYWGQGTLVTVSS	404			
anti-MSLN single domain antibody clone 394925 (VHH, Human VH single domain; tested as antibody-containing supernatant) VHH: EVQLLESGGGLIQPGGSLRLSCAASGFSFSSYAMSWVRQAPGKGLEWVSAISSSGDSTYYADSVKGRFTISRDNSKNTLYLQMNSLRAEDTAVYYCAKPPSYYDFLSDPDYWGQGTLVTVSS	277			
anti-MSLN single domain antibody clone 394940 (VHH, Human VH single domain ('heavy chain antibody variable domain')) VHH: EVQLLESGGGLVQPGGSLRLSCAASGFSFSSYAMSWVRQAPGKGLEWVSSISSSGDSTYYADSVKGRFTISRDNSKNTLYLQMNSLRAEDTAVYYCARPPSYYDFLSDPDYWGQGTLVTVSS	662	21	6.5	2.6
anti-MSLN single domain antibody clone 394966 (VHH, Human VH single domain; tested as antibody-containing supernatant) VHH: EVQLLESGGGLGQPGGSLRLSCAASGFTFSSYPMSWVRQAPGKGLEWVSAISGSGDSTYYADSVKGRFTISRDNSKNTLYLQMNSLRAEDTAVYYCAKPPSYYDFLSDPDYWGQGTLVTVSS	356			
anti-MSLN single domain antibody clone 394971 (VHH, Human VH single domain; tested as antibody-containing supernatant) VHH: EVQLLESGGGLIQPGGSLRLSCAASGFSFSSYAMSWVRQAPGKGLEWVSYISGSGDSTYYADSVKGRFTISRDNSKNTLYLQMNSLRAEDTAVYYCAKPPSYYDFLSDPDYWGQGTLVTVSS	373			
anti-MSLN single domain antibody clone 394972 (VHH, Human VH single domain; tested as antibody-containing supernatant) VHH: EVQLLESGGGLVQPGGSLRLSCAASGFTFSSYAMSWVRQAPGKGLEWVSAISSSGDSTYYADSVKGRFTISRDNSKNTLYLQMNSLRAEDTAVYYCAKPPSYYDFLSDPDYWGQGTLVTVSS	477			
anti-MSLN single domain antibody clone 394979 (VHH, Human VH single domain; tested as antibody-containing supernatant) VHH: EVQLLESGGGVVQPGRSLRLSCAASGFTFSSYDMHWVRQAPGKGLEWVAVISYDGSKKYSADSVKGRFTISRDNSKNTLYLQMNSLRAEDTAVYYCAKPPSYYDFLSDPDYWGQGTLVTVSS	160			
anti-MSLN single domain antibody clone 394982 (VHH, Human VH single domain; tested as antibody-containing supernatant) VHH: EVQLLESGGGLVQPGGSLRLSCAASGFTFTSYAMSWVRQAPGKGLEWVSSISSSGDSTYYADSVKGRFTISRDNSKNTLYLQMNSLRAEDTAVYYCAKPPSYYDFLSDPDYWGQGTLVTVSS	405			
anti-MSLN single domain antibody clone 394985 (VHH, Human VH single domain; tested as antibody-containing supernatant) VHH: EVQLLESGGGLVQPGGSLRLSCAASGFTFSSYAMSWVRQAPGKGLEWVSAITGSGDSTYYADSVKGRFTISRDNSKNTLFLQMSSLRGEDTAVYYCAKPPSYYDFLSDPDYWGQGTLVTVSS	378			
anti-MSLN single domain antibody clone 394991 (VHH, Human VH single domain; tested as antibody-containing supernatant) VHH: EVQLLESGGGLVQPGGSLRLSCAASGFTFSSYAMNWVRQAPGKGLEWVSSISSSGGSTYYADSVKGRFTISRDNSKNTLYLQMNSLRAEDTAVYYCARPPSYYDFLSDPDYWGQGTLVTVSS	281			
anti-MSLN single domain antibody clone 394908 (VHH, Human VH single domain) VHH: EVQLLESGGGLIQPGGSLRLSCAASGFSFSSYAMSWVRQAPGKGLEWVSNISGSGDSTYYADSVKGRFTISRDNSKNTLYLQMNSLRAEDTAVYYCAKPPSYYDFLSDPDYWGQGTLVTVSS	508	64.6	71.1	

The next lines start with the values.

fold over background mean fluorescence intensity (MFI) [1] [fold over background]	Kd [2] [nM]	EC50 [3] [nM]	EC50 [4] [nM]	Binder
227				anti-MSLN single domain antibody clone 394905 (VHH, Human VH single domain; tested as antibody-containing supernatant) VHH: EVQLLESGGGLGQPGGSLRLSCAASGFTFSSYPMSWVRQAPGKGLEWVSSISSSGDSTYYADSVKGRFTISRDNSKNTLYLQMNSLRAEDTAVYYCAKPPSYYDFLSDPDYWGQGTLVTVSS
429				anti-MSLN single domain antibody clone 394907 (VHH, Human VH single domain; tested as antibody-containing supernatant) VHH: EVQLLESGGGLIQPGGSLRLSCAASGFTFSSYAMSWVRQAPGKGLEWVSSISSSGDSTYYADSVKGRFTISRDNSKNTLYLQMNSLRAEDTAVYYCAKPPSYYDFLSDPDYWGQGTLVTVSS
313				anti-MSLN single domain antibody clone 394910 (VHH, Human VH single domain; tested as antibody-containing supernatant) VHH: EVQLLESGGGLVQPGGSLRLSCAASGFSFSSYAMSWVRQAPGKGLEWVSSISSSGDSTYYADSVKGRFTISRDNSKNTLYLQMNSLRAEDTAVYYCAKPPSYYDFLSDPDYWGQGTLVTVSS
381				anti-MSLN single domain antibody clone 394921 (VHH, Human VH single domain; tested as antibody-containing supernatant) VHH: EVQLLESGGGLVQPGGSLRLSCAASGFTFSSYAMSWVRQAPGKGLEWVSNISGSGDSTYYADSVKGRFTISRDNSKNTLYLQMNSLRAEDTAVYYCAKPPSYYDFLSDPDYWGQGTLVTVSS
540				anti-MSLN single domain antibody clone 394930 (VHH, Human VH single domain; tested as antibody-containing supernatant) VHH: EVQLLESGGGLIQPGGSLRLSCAASGFSFSSYAMSWVRQAPGKGLEWVSSISSSGDSTYYADSVKGRFTISRDNSKNTLYLQMNSLRAEDTAVYYCARPPSYYDFLSDPDYWGQGTLVTVSS
285				anti-MSLN single domain antibody clone 394947 (VHH, Human VH single domain; tested as antibody-containing supernatant) VHH: EVQLLESGGGLIQPGGSLRLSCAASGFSFSSYAMSWVRQAPGKGLEWVSSISSSGDSTYYADSVKGRFTISRDNSKNTLYLQMKSLRAEDTAVYYCAKPPSYYDFLSDPDYWGQGTLVTVSS
